Patent US20100081612A1 (GENERAL HOSPITAL, published 2010)
Where no end group is shown, it is not given here. [ ]: non-standard residue; d: D form. Cha = N[C@@H](CC1CCCCC1)C(=O)O

B1: human PTH(1-31)NH2 (peptide)
peptide: SVSEIQLMHNLGKHLNSMERVEWLRKKLQDV-NH2
notes: also called hPTH(1-31)NH2; parental PTH(1-31)NH2 peptide
B2: [Ala^1,Arg^19]hPTH(1-31)NH2 Val^31→Cha (peptide)
peptide: AVSEIQLMHNLGKHLNSMRRVEWLRKKLQD[Cha]-NH2
modifications: N-terminus assumed
SMILES: CC[C@H](C)[C@H](NC(=O)[C@H](CCC(=O)O)NC(=O)[C@H](CO)NC(=O)[C@@H](NC(=O)[C@H](C)N)C(C)C)C(=O)N[C@@H](CCC(N)=O)C(=O)N[C@@H](CC(C)C)C(=O)N[C@@H](CCSC)C(=O)N[C@@H](Cc1c[nH]cn1)C(=O)N[C@@H](CC(N)=O)C(=O)N[C@@H](CC(C)C)C(=O)NCC(=O)N[C@@H](CCCCN)C(=O)N[C@@H](Cc1c[nH]cn1)C(=O)N[C@@H](CC(C)C)C(=O)N[C@@H](CC(N)=O)C(=O)N[C@@H](CO)C(=O)N[C@@H](CCSC)C(=O)N[C@@H](CCCNC(=N)N)C(=O)N[C@@H](CCCNC(=N)N)C(=O)N[C@H](C(=O)N[C@@H](CCC(=O)O)C(=O)N[C@@H](Cc1c[nH]c2ccccc12)C(=O)N[C@@H](CC(C)C)C(=O)N[C@@H](CCCNC(=N)N)C(=O)N[C@@H](CCCCN)C(=O)N[C@@H](CCCCN)C(=O)N[C@@H](CC(C)C)C(=O)N[C@@H](CCC(N)=O)C(=O)N[C@@H](CC(=O)O)C(=O)N[C@@H](CC1CCCCC1)C(N)=O)C(C)C
B3: [Ala^1,Arg^19]hPTH(1-31)NH2 Asp^30→Cha (peptide)
peptide: AVSEIQLMHNLGKHLNSMRRVEWLRKKLQ[Cha]V-NH2
modifications: N-terminus assumed
SMILES: CC[C@H](C)[C@H](NC(=O)[C@H](CCC(=O)O)NC(=O)[C@H](CO)NC(=O)[C@@H](NC(=O)[C@H](C)N)C(C)C)C(=O)N[C@@H](CCC(N)=O)C(=O)N[C@@H](CC(C)C)C(=O)N[C@@H](CCSC)C(=O)N[C@@H](Cc1c[nH]cn1)C(=O)N[C@@H](CC(N)=O)C(=O)N[C@@H](CC(C)C)C(=O)NCC(=O)N[C@@H](CCCCN)C(=O)N[C@@H](Cc1c[nH]cn1)C(=O)N[C@@H](CC(C)C)C(=O)N[C@@H](CC(N)=O)C(=O)N[C@@H](CO)C(=O)N[C@@H](CCSC)C(=O)N[C@@H](CCCNC(=N)N)C(=O)N[C@@H](CCCNC(=N)N)C(=O)N[C@H](C(=O)N[C@@H](CCC(=O)O)C(=O)N[C@@H](Cc1c[nH]c2ccccc12)C(=O)N[C@@H](CC(C)C)C(=O)N[C@@H](CCCNC(=N)N)C(=O)N[C@@H](CCCCN)C(=O)N[C@@H](CCCCN)C(=O)N[C@@H](CC(C)C)C(=O)N[C@@H](CCC(N)=O)C(=O)N[C@@H](CC1CCCCC1)C(=O)N[C@H](C(N)=O)C(C)C)C(C)C
B4: [Ala^1,Arg^19]hPTH(1-31)NH2 Lys^26→Cha (peptide)
peptide: AVSEIQLMHNLGKHLNSMRRVEWLR[Cha]KLQDV-NH2
modifications: N-terminus assumed
SMILES: CC[C@H](C)[C@H](NC(=O)[C@H](CCC(=O)O)NC(=O)[C@H](CO)NC(=O)[C@@H](NC(=O)[C@H](C)N)C(C)C)C(=O)N[C@@H](CCC(N)=O)C(=O)N[C@@H](CC(C)C)C(=O)N[C@@H](CCSC)C(=O)N[C@@H](Cc1c[nH]cn1)C(=O)N[C@@H](CC(N)=O)C(=O)N[C@@H](CC(C)C)C(=O)NCC(=O)N[C@@H](CCCCN)C(=O)N[C@@H](Cc1c[nH]cn1)C(=O)N[C@@H](CC(C)C)C(=O)N[C@@H](CC(N)=O)C(=O)N[C@@H](CO)C(=O)N[C@@H](CCSC)C(=O)N[C@@H](CCCNC(=N)N)C(=O)N[C@@H](CCCNC(=N)N)C(=O)N[C@H](C(=O)N[C@@H](CCC(=O)O)C(=O)N[C@@H](Cc1c[nH]c2ccccc12)C(=O)N[C@@H](CC(C)C)C(=O)N[C@@H](CCCNC(=N)N)C(=O)N[C@@H](CC1CCCCC1)C(=O)N[C@@H](CCCCN)C(=O)N[C@@H](CC(C)C)C(=O)N[C@@H](CCC(N)=O)C(=O)N[C@@H](CC(=O)O)C(=O)N[C@H](C(N)=O)C(C)C)C(C)C

Biological target: T1, wild-type human PTHR (human, UniProt Q03431 27-593)
T1 sequence (looked up): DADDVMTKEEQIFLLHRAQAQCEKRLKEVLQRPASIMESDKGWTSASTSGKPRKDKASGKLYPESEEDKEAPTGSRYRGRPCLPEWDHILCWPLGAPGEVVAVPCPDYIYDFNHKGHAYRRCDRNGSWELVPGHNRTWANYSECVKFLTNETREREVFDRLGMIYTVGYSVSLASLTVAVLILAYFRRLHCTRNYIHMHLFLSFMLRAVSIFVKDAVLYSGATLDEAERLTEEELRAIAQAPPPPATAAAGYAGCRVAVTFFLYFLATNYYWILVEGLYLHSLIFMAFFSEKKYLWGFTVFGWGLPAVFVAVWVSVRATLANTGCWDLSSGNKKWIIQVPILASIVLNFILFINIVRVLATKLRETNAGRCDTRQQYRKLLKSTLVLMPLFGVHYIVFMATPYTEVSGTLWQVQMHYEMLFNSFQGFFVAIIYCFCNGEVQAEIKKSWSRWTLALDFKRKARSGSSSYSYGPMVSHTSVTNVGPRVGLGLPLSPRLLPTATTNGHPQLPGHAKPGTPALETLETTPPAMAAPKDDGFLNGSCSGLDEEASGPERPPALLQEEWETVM
Test: cell-based or functional assay

Binder	inositol phosphate (IP) production, peptide at 1×10^-6 M
B1	4 fold
SVSEIQLMHNLGKHLNSMERVEWLRKALQDV-NH2 [PTH(1-31)NH2 Lys^27→Ala]	4 fold
SVSEIQLMHNLGKHLNSMERVEWLRKKAQDV-NH2 [PTH(1-31)NH2 Leu^28→Ala]	4 fold
SVSEIQLMHNLGKHLNSMERVEWLAKKLQDV-NH2 [PTH(1-31)NH2 Arg^25→Ala]	4 fold
SVSEIQLMHNLGKHLNSMERVEWLRKKLADV-NH2 [PTH(1-31)NH2 Gln^29→Ala]	4 fold
SVSEIQLMHNLGKHLNSMERVEWLRKKLQDA-NH2 [PTH(1-31)NH2 Val^31→Ala]	4 fold
SVSEIQLMHNLGKHLNSMERAEWLRKKLQDV-NH2 [PTH(1-31)NH2 Val^21→Ala]	4 fold
SVSEIQLMHNLGKHLNSMERVEWLRKKLQAV-NH2 [PTH(1-31)NH2 Asp^30→Ala]	4 fold
SVSEIQLMHNLGKHLNSMEAVEWLRKKLQDV-NH2 [PTH(1-31)NH2 Arg^20→Ala]	4 fold

Biological target: T1, wild-type human PTHR
Test: competition binding, HKRK-B7 cells, 125I-PTH(1-34) tracer

Binder	fold change in binding affinity vs [Ala^1,Arg^19]PTH(1-31)NH2	fold enhancement in binding affinity vs PTH(1-31)NH2	fold change in binding affinity vs PTH(1-31)NH2
B2	≤ 6 fold		
SVSEIQLMHNLGKHLNSMERVEWLRKKLADV-NH2 [PTH(1-31)NH2 Gln^29→Ala]		≤ 2 fold	
SVSEIQLMHNLGKHLNSMERVEWLRKKLQAV-NH2 [PTH(1-31)NH2 Asp^30→Ala]			≤ 2 fold
B3	≤ 6 fold		
B4	≤ 6 fold		
AVSEIQLMHNLGKHLNSMRRVEWL[Cha]KKLQDV-NH2 [[Ala^1,Arg^19]hPTH(1-31)NH2 Arg^25→Cha]	≤ 6 fold		

Biological target: T1, wild-type human PTHR
Test: as above
Remark: another data set of the same source
Method: (§1) Receptor binding—Binding to the wild-type human PTHR in intact HKRK-B7 cells and ROS 17/2.8 cells was assessed using ¹²⁵I-PTH(1-34) as a tracer radioligand, as described (Shimizu, M., (2001) Endocrinology 142:3068-3074). In brief, the cells in 24-well plates (about 500,000 cells per well) were incubated in binding buffer containing radioligand (about 100,000 cpm per well) with or without unlabeled peptide ligand (3×10⁻⁹ to 1×10⁻⁵ M) for four hours at 15° C. The binding mixture was then removed by aspiration, the cells were rinsed three times with binding buffer, lysed in 1 M NaOH, and the entire lysate was counted for gamma-irradiation in a gamma counter. Binding to PTHR-delNt in COS-7 cell membranes was assessed in 96-well, vacuum filtration plates (Multiscreen-Durapore HV, […], Millipore Corp., Millford, Mass.) using ¹²⁵I-[Aib^{1,3},M]PTH(1-15)NH₂ as a tracer radioligand, as described (Dean, T., (2006) Mol Endocrinol 20:931-942). In brief, cell membranes (20 μg/well) were incubated in membrane binding buffer containing radioligand (30,000 cpm/well) with or without unlabeled peptide ligand (3×10⁻⁹ to 1×10⁻⁵ M) for 90 minutes at 21° C. The plates were then subject to rapid vacuum filtration, the filters were washed once with buffer, detached from the plate and counted for gamma-irradiation in a gamma counter. Non-specific binding was defined as the binding observed in the presence of 1×10⁻⁶ M PTH(1-31)NH₂ for HKRK-B7 and ROS 17/2.8 cells, and 1×10⁻⁶ M [Aib^{1,3},M]PTH(1-15)NH₂ for PTHR-delNt. Specifically bound radioactivity was calculated as a percentage of the radioactivity specifically bound in the absence of competing ligand.
Alanine-Scan of the PTH(17-31) domain—Each residue in the (17-31) region of PTH(1-31)NH₂ was individually replaced with alanine and the effects of the substitutions on binding to the intact human PTHR stably expressed in HKRK-B7 cells was assessed. Competition binding studies were performed using whole cells and ¹²⁵I-PTH(1-34) (¹²⁵I-[Nle^{8,21},Tyr³⁴]ratPTH(1-34)NH₂) as a tracer radioligand.

Binder	IC50
B1	68 nM
SVSEIQLMHNLGKHLNSMERVEWLRKALQDV-NH2 [PTH(1-31)NH2 Lys^27→Ala]	217 nM
SVSEIQLMHNLGKHLNSMERVEWLRKKAQDV-NH2 [PTH(1-31)NH2 Leu^28→Ala]	290 nM
SVSEIQLMHNLGKHLNSMERVEWLAKKLQDV-NH2 [PTH(1-31)NH2 Arg^25→Ala]	281 nM
SVSEIQLMHNLGKHLNSMERVEWLRKKLADV-NH2 [PTH(1-31)NH2 Gln^29→Ala]	44 nM
SVSEIQLMHNLGKHLNSMERVEWLRKKLQDA-NH2 [PTH(1-31)NH2 Val^31→Ala]	176 nM
SVSEIQLMHNLGKHLNSMERAEWLRKKLQDV-NH2 [PTH(1-31)NH2 Val^21→Ala]	200 nM
SVSEIQLMHNLGKHLNSMERVEWLRKKLQAV-NH2 [PTH(1-31)NH2 Asp^30→Ala]	63 nM
SVSEIQLMHNLGKHLNSMEAVEWLRKKLQDV-NH2 [PTH(1-31)NH2 Arg^20→Ala]	> 10000 nM

Biological target: T1, wild-type human PTHR
Test: as above
Remark: another data set of the same source
Method: as §1
Cyclohexylalanine and glutamate substitutions were introduced into [Ala¹,Arg¹⁹]hPTH(1-31)NH₂. The helical residue values were calculated from [θ]₂₂₂, the mean-residue elipticities observed in the CD spectra at 222 nm. Competition binding studies were performed in intact HKRK-B7 cells stably transfected with the hPTHR using ¹²⁵I-[Nle^{8,21},Tyr³⁴]rPTH(1-34)NH ₂ tracer radioligand, and in membranes prepared from COS-7 cells transiently transfected with hPTHR-delNt and a negative-dominant Gαs using ¹²⁵I-[Aib^{1,3},Nle⁸,Gln¹⁰,Har¹¹,Ala¹²,Trp¹⁴,Tyr¹⁵]rPTH(1-15)NH₂ tracer radioligand. Binding values (nM) are means (+/−s.e.m.) of data from the number of experiments indicated (n).

Binder	IC50
B2	66 nM
B3	54 nM
B4	172 nM
AVSEIQLMHNLGKHLNSMRRVEWL[Cha]KKLQDV-NH2 [[Ala^1,Arg^19]hPTH(1-31)NH2 Arg^25→Cha]	103 nM

Biological target: PTHR-delNt (human) (UniProt Q03431)
Test: competition binding, COS-7 membranes, 125I-[Aib1,3,M]PTH(1-15) tracer

Binder	IC50	fold change in binding affinity vs [Ala^1,Arg^19]PTH(1-31)NH2	fold reduction in binding affinity vs PTH(1-31)NH2
B2	466 nM	< 3 fold	
B1	3670 nM		
SVSEIQLMHNLGKHLNSMERVEWLRKALQDV-NH2 [PTH(1-31)NH2 Lys^27→Ala]	7290 nM		
SVSEIQLMHNLGKHLNSMERVEWLRKKAQDV-NH2 [PTH(1-31)NH2 Leu^28→Ala]	3460 nM		
SVSEIQLMHNLGKHLNSMERVEWLAKKLQDV-NH2 [PTH(1-31)NH2 Arg^25→Ala]	7180 nM		
SVSEIQLMHNLGKHLNSMERVEWLRKKLADV-NH2 [PTH(1-31)NH2 Gln^29→Ala]	1930 nM		
SVSEIQLMHNLGKHLNSMERVEWLRKKLQDA-NH2 [PTH(1-31)NH2 Val^31→Ala]	4910 nM		
SVSEIQLMHNLGKHLNSMERAEWLRKKLQDV-NH2 [PTH(1-31)NH2 Val^21→Ala]	5690 nM		
SVSEIQLMHNLGKHLNSMERVEWLRKKLQAV-NH2 [PTH(1-31)NH2 Asp^30→Ala]	1540 nM		
SVSEIQLMHNLGKHLNSMEAVEWLRKKLQDV-NH2 [PTH(1-31)NH2 Arg^20→Ala]	19300 nM		5 fold
B3	305 nM	< 3 fold	
B4	1870 nM		
AVSEIQLMHNLGKHLNSMRRVEWL[Cha]KKLQDV-NH2 [[Ala^1,Arg^19]hPTH(1-31)NH2 Arg^25→Cha]	2710 nM		
